Patent publication US20130273058A1
[ ]: non-standard residue; d: D form. The star is where a group is joined. Palmitoyl = CCCCCCCCCCCCCCCC(=O)*

Biological target: GFP-tagged beta-catenin (UniProt P35222)
Experiment: microscale thermophoresis (Monolith NT.115); lysate of HEK293 cells with GFP-beta-catenin mixed with increasing CT-HC-5 in the presence of bicelles; Hill fit

Sequence of GFP-tagged beta-catenin (P35222 whole entry): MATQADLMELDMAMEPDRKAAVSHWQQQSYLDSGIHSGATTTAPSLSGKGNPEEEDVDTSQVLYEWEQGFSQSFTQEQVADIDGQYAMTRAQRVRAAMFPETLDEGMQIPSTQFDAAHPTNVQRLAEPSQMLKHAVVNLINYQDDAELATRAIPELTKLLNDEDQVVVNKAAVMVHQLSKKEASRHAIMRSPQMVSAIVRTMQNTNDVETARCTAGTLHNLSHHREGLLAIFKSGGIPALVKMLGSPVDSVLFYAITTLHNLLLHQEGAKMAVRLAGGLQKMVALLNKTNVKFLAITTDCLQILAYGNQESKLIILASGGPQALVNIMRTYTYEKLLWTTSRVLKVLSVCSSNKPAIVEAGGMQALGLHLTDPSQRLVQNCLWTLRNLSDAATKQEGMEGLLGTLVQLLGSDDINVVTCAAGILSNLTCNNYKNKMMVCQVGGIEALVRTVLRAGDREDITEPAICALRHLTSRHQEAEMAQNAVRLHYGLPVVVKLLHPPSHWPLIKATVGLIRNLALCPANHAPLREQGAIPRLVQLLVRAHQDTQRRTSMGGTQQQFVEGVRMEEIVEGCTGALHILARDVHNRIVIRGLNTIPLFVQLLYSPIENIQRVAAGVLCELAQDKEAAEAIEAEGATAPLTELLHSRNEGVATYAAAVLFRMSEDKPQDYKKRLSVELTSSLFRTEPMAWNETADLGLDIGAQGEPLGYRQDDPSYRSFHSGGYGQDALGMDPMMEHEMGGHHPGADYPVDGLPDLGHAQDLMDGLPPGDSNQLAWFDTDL

B1: CT-HC-5 (peptide)
peptide: Palmitoyl-[dT][dR][dF][dL][dS][dS][dT][dL][dE][dV][dS][dL][dR][dK][dK]-NH2
SMILES: CCCCCCCCCCCCCCCC(=O)N[C@@H](C(=O)N[C@H](CCCNC(=N)N)C(=O)N[C@H](Cc1ccccc1)C(=O)N[C@H](CC(C)C)C(=O)N[C@H](CO)C(=O)N[C@H](CO)C(=O)N[C@@H](C(=O)N[C@H](CC(C)C)C(=O)N[C@H](CCC(=O)O)C(=O)N[C@@H](C(=O)N[C@H](CO)C(=O)N[C@H](CC(C)C)C(=O)N[C@H](CCCNC(=N)N)C(=O)N[C@H](CCCCN)C(=O)N[C@H](CCCCN)C(N)=O)C(C)C)[C@H](C)O)[C@H](C)O
Kd: 2700 nM
